Assay results: article PMC3410656 (Nature structural & molecular biology, 2011)

Biological target: blocked SNARE[change] (SNARE[change] with CPXcen residues 48-134 pre-bound) ( | rat | human, UniProt P63027;P32851;P60880-2;O14810)
Assay: ITC

B1: wild-type complexin fragment wtCPX (hCPX1 residues 26-83) (domain or fragment)
chain: KDPDAAKKEEERQEALRQAEEERKAKYAKMEAEREAVRQGIRDKYGIKKKEEREAEAQ
- Kd: ~10 µM
